Experiment: Phosphatase assay (Malachite Green) of purified UppP
Format: biochemical, E. coli
Conditions: 100 μM Fpp as model substrate, 37° C., 0.2% DDM, pH 7.5
Protocol: UppP activity was determined by the Malachite Green assay using Phosphate Colorimetric Assay Kit purchased from BioVision. The enzymatic assay reaction mixture (200 μl) containing 50 mM Tris-HCl, pH 7.5, 150 mM NaCl, 0.2% DDM, 100 μM substrate (Fpp) and appropriately diluted purified UppP was incubated at 37° C. The reaction was quenched by adding 30 μl of Malachite Green Reagent and then the tubes were incubated for 30 min at room temperature. After incubation, the reaction mixture was transferred to 96-well plates and the released phosphate that reacted with Malachite Green was measured at 650 nm according to the reaction time course. The amounts of released phosphate were quantified relative to a phosphate standard curve.
For testing the phosphatase activity of UppP, assays were performed in the presence of various substrates using Malachite Green assay. Since the intended substrate, Upp, was difficult to synthesize and purify (Ghachi et al. Id.), we used farnesyl pyrophosphate (Fpp) as a model substrate. It was previously reported that another E. coli undecaprenyl pyrophosphate phosphatase, PgpB, which has no sequence homology with UppP, catalyzed the dephosphorylation of Upp with a relatively low efficiency compared to diacylglycerol pyrophosphate and farnesyl pyrophosphate lipid substrates. In our activity assay test, Fpp was a suitable substrate for UppP.

B1: UppP: E. coli integral membrane enzyme undecaprenyl pyrophosphate phosphatase purified from the HmBRI/D94N fusion expression system (protein, UniProt P60932 1-273, looked up)
Undecaprenyl-diphosphatase: MSDMHSLLIAAILGVVEGLTEFLPVSSTGHMIIVGHLLGFEGDTAKTFEVVIQLGSILAVVVMFWRRLFGLIGIHFGRPLQHEGESKGRLTLIHILLGMIPAVVLGLLFHDTIKSLFNPINVMYALVVGGLLLIAAECLKPKEPRAPGLDDMTYRQAFMIGCFQCLALWPGFSRSGATISGGMLMGVSRYAASEFSFLLAVPMMMGATALDLYKSWGFLTSGDIPMFAVGFITAFVVALIAIKTFLQLIKRISFIPFAIYRFIVAAAVYVVFF
For B1, the “time-dependent phosphatase activity (released phosphate)” value was “functional protein capable of releasing free phosphate”.

— patent US9067985B2, “Bacteriorhodopsin fusion membrane protein expression system” (Academia Sinica, priority 2012, dated 2015)
